Biological target: the molecule itself
Assay: SEC-MALS

B1: human ELP1 with a C-terminal 3xFLAG tag (natural protein, UniProt O95163 1-1332, looked up)
chain: MRNLKLFRTLEFRDIQGPGNPQCFSLRTEQGTVLIGSEHGLIEVDPVSREVKNEVSLVAEGFLPEDGSGRIVGVQDLLDQESVCVATASGDVILCSLSTQQLECVGSVASGISVMSWSPDQELVLLATGQQTLIMMTKDFEPILEQQIHQDDFGESKFITVGWGRKETQFHGSEGRQAAFQMQMHESALPWDDHRPQVTWRGDGQFFAVSVVCPETGARKVRVWNREFALQSTSEPVAGLGPALAWKPSGSLIASTQDKPNQQDIVFFEKNGLLHGHFTLPFLKDEVKVNDLLWNADSSVLAVWLEDLQREESSIPKTCVQLWTVGNYHWYLKQSLSFSTCGKSKIVSLMWDPVTPYRLHVLCQGWHYLAYDWHWTTDRSVGDNSSDLSNVAVIDGNRVLVTVFRQTVVPPPMCTYQLLFPHPVNQVTFLAHPQKSNDLAVLDASNQISVYKCGDCPSADPTVKLGAVGGSGFKVCLRTPHLEKRYKIQFENNEDQDVNPLKLGLLTWIEEDVFLAVSHSEFSPRSVIHHLTAASSEMDEEHGQLNVSSSAAVDGVIISLCCNSKTKSVVLQLADGQIFKYLWESPSLAIKPWKNSGGFPVRFPYPCTQTELAMIGEEECVLGLTDRCRFFINDIEVASNITSFAVYDEFLLLTTHSHTCQCFCLRDASFKTLQAGLSSNHVSHGEVLRKVERGSRIVTVVPQDTKLVLQMPRGNLEVVHHRALVLAQIRKWLDKLMFKEAFECMRKLRINLNLIYDHNPKVFLGNVETFIKQIDSVNHINLFFTELKEEDVTKTMYPAPVTSSVYLSRDPDGNKIDLVCDAMRAVMESINPHKYCLSILTSHVKKTTPELEIVLQKVHELQGNAPSDPDAVSAEEALKYLLHLVDVNELYDHSLGTYDFDLVLMVAEKSQKDPKEYLPFLNTLKKMETNYQRFTIDKYLKRYEKAIGHLSKCGPEYFPECLNLIKDKNLYNEALKLYSPSSQQYQDISIAYGEHLMQEHMYEPAGLMFARCGAHEKALSAFLTCGNWKQALCVAAQLNFTKDQLVGLGRTLAGKLVEQRKHIDAAMVLEECAQDYEEAVLLLLEGAAWEEALRLVYKYNRLDIIETNVKPSILEAQKNYMAFLDSQTATFSRHKKRLLVVRELKEQAQQAGLDDEVPHGQESDLFSETSSVVSGSEMSGKYSHSNSRISARSSKNRRKAERKKHSLKEGSPLEDLALLEALSEVVQNTENLKDEVYHILKVLFLFEFDEQGRELQKAFEDTLQLMERSLPEIWTLTYQQNSATPVLGPNSTANSIMASYQQQKTSVPVLDAELFIPPKINRRTQWKLSLLD
- stoichiometry N: 2

— article PMC8811885 (ACS Omega, 2022)
